Results on 1 protein are retold here after US20060223158.

The target of this data set is T1, purified DARPP-32.
T1 sequence (Q9UD71 1-204, species assumed, looked up): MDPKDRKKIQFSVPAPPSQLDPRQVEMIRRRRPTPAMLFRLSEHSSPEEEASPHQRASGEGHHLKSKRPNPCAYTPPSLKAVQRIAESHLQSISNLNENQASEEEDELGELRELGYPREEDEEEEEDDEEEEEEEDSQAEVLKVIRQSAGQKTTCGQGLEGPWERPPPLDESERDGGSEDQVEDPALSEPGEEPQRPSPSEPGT

B1: Myc-tagged MM2-CK1ε (S323A/T325A/T334A/T337A/S368A/S405A/T407A/S408A), expressed in N2a cells from pCS-Myc-MM2-CK1ε (protein)
chain: MELRVGNKYRLGRKIGSGSFGDIYLGANIASGEEVAIKLECVKTKHPQLHIESKFYKMMQGGVGIPSIKWCGAEGDYNVMVMELLGPSLEDLFNFCSRKFSLKTVLLLADQMISRIEYIHSKNFIHRDVKPDNFLMGLGKKGNLVYIIDFGLAKKYRDARTHQHIPYRENKNLTGTARYASINTHLGIEQSRRDDLESLGYVLMYFNLGSLPWQGLKAATKRQKYERISEKKMSTPIEVLCKGYPSEFSTYLNFCRSLRFDDKPDYSYLRQLFRNLFHRQGFSYDYVFDWNMLKFGAARNPEDVDRERREHEREERMGQLRGAAARALPPGPPAGAAANRLRSAAEPVASTPASRIQPAGNTSPRAIARVDRERKVSMRLHRGAPANVSSSDLTGRQEVSRIPAAQAAVPFDHLGK
In the case of B1, the “kinase activity of the immunoprecipitated enzyme with DARPP-32 as substrate, against HA-CK1ε” value was “approximately 2-fold more active than HA-CK1ε in the absence of DHPG”.
